Patent US20260109774A1 (JUNO THERAPEUTICS, published 2026)

Assays:
[1] = molecular target: T1, human BCMA peptide 30SNTPPLTCQR39 (human); assay: CLIPS peptide array, ELISA
T1 construct: Could be recognized in a linear form
T1 peptide: SNTPPLTCQR
Protocol: (§1) Mapping was carried out using anti-BCMA scFv clones, such as those fused with mouse Fc (scFv-mFc).
(§2) Linear and conformational peptide libraries of amino acid residues 1-54 of human BCMA (set forth as amino acid residues 1-54 of SEQ ID NO:367) were generated based on a combinatorial matrix design. Linear peptides and structural mimetics including single loop, a-helix, 3-turn, combinatorial and linear disulfide bridge mimics, and discontinuous epitope mimics were used, along with positive and negative control peptides, on an amino-functionalized solid support.
(§3) Affinities for binding to the peptides in the epitope library were determined using ELISA. The peptide arrays were incubated with a solution containing the scFv overnight at 4° C. Affinity information was used in iterative screens to define the sequence and conformation of epitopes. Heat maps of affinity information for two or more loops were generated.

[2] = molecular target: T2, human B-cell maturation antigen (BCMA) on cells (human, UniProt Q02223 1-184); assay: flow cytometry on BCMA-expressing HEK293 cells vs control cells, crude lysate or bacterial supernatant; clone listed in Table E2
T2 construct: Recombinant on HEK293 or K562 cells, or endogenous on cell lines (H929, RPMI 8226, OPM2, MM1S, Daudi); also called hBCMA; huBCMA
T2 chain: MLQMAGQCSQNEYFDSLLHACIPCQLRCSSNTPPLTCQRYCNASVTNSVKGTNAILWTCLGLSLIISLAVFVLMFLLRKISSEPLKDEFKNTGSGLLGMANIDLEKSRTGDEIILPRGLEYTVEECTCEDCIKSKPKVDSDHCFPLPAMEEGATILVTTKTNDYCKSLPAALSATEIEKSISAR
Protocol: Specific binding of resulting scFv clones to BCMA-expressing HEK293 cells, as compared to control cells not expressing BCMA, was assessed by flow cytometry either with in vitro translated crude cell lysate or with bacterially-produced supernatant.

[3] = molecular target: T3, BCMA-Fc (soluble human BCMA fused at its C-terminus to an Fc region of IgG) (human, UniProt Q02223 1-54); assay: flow cytometry, T cells transduced with O/SSE construct, CD4 gate, recombinant BCMA-Fc (rBCMA) staining against surrogate marker
T3 construct: also called hBCMA-Fc; hBMCA-Fc
T3 sequence: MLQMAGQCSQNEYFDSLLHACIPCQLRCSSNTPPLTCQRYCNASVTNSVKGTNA
Protocol: (§4) Lentiviral constructs containing anti-BCMA CAR-encoding polynucleotides with starting and optimized sequences, respectively, as described in Example 3, were transduced into T cells and transduced cells were analyzed for transduction (based on expression of a surrogate marker) and for CAR expression based on binding to recombinant BCMA-Fc fusion protein by flow cytometry.

[4] = molecular target: T3, BCMA-Fc (soluble human BCMA fused at …); assay: flow cytometry, T cells transduced with O/SSE construct, CD8 gate, recombinant BCMA-Fc (rBCMA) staining against surrogate marker
Protocol: as §4

[5] = molecular target: T3, BCMA-Fc (soluble human BCMA fused at …); assay: flow cytometry, T cells transduced with Non-SSE construct, CD4 gate, recombinant BCMA-Fc (rBCMA) staining against surrogate marker
Protocol: as §4

[6] = molecular target: T3, BCMA-Fc (soluble human BCMA fused at …); assay: flow cytometry, T cells transduced with Non-SSE construct, CD8 gate, recombinant BCMA-Fc (rBCMA) staining against surrogate marker
Protocol: as §4

[7] = molecular target: T4, human BCMA amino acid residues 1-54 (linear and conformational peptide libraries) (human, UniProt Q02223 1-54); assay: CLIPS peptide array, ELISA
T4 construct: Presented as CLIPS peptide arrays (linear peptides and structural mimetics) on a solid support
T4 sequence: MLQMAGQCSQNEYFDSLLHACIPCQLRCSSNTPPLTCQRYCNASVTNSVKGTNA
Protocol: as §1, §2, §3

B1: BCMA-25 scFv (scFv)
scFv: EVQLVQSGGGLVQPGRSLRLSCTASGFTFGDYAMSWFRQAPGKGLEWVGFIRSKAYGGTTEYAASVKGRFTISRDDSKSIAYLQMNSLKTEDTAVYYCAAWSAPTDYWGQGTLVTVSSGGGGSGGGGSGGGGSDIQMTQSPAFLSASVGDRVTVTCRASQGISNYLAWYQQKPGNAPRLLIYSASTLQSGVPSRFRGTGYGTEFSLTIDSLQPEDFATYYCQQSYTSRQTFGPGTRLDIK
[1]
  binding result: binds
[2]
  binding result: binds

B2: BCMA-52-LS CAR (other)
chain: SYELTQPPSASGTPGQRVTMSCSGTSSNIGSHSVNWYQQLPGTAPKLLIYTNNQRPSGVPDRFSGSKSGTSASLAISGLQSEDEADYYCAAWDGSLNGLVFGGGTKLTVLGSRGGGGSGGGGSGGGGSLEMAEVQLVQSGAEVKKPGESLKISCKGSGYSFTSYWIGWVRQMPGKGLEWMGIIYPGDSDTRYSPSFQGHVTISADKSISTAYLQWSSLKASDTAMYYCARYSGSFDNWGQGTLVTVSSESKYGPPCPPCPAPPVAGPSVFLFPPKPKDTLMISRTPEVTCVVVDVSQEDPEVQFNWYVDGVEVHNAKTKPREEQFQSTYRVVSVLTVLHQDWLNGKEYKCKVSNKGLPSSIEKTISKAKGQPREPQVYTLPPSQEEMTKNQVSLTCLVKGFYPSDIAVEWESNGQPENNYKTTPPVLDSDGSFFLYSRLTVDKSRWQEGNVFSCSVMHEALHNHYTQKSLSLSLGKMFWVLVVVGGVLACYSLLVTVAFIIFWVKRGRKKLLYIFKQPFMRPVQTTQEEDGCSCRFPEEEEGGCELRVKFSRSADAPAYQQGQNQLYNELNLGRREEYDVLDKRRGRDPEMGGKPRRKNPQEGLYNELQKDKMAEAYSEIGMKGERRRGKGHDGLYQGLSTATKDTYDALHMQALPPR
notes: Chimeric antigen receptor on T cells; also called BCMA-52-LS-O/SSE CAR; BCMA-52-L CAR
[3]
  % of cells in Q1 (rBCMA+ marker-): 3.66%
  % of cells in Q3 (rBCMA- marker+): 3.85%
  % of cells in Q4 (rBCMA- marker-): 22.9%
[4]
  % of cells in Q1 (rBCMA+ marker-): 3.89%
  % of cells in Q3 (rBCMA- marker+): 5.38%
  % of cells in Q4 (rBCMA- marker-): 28.3%
[5]
  % of cells in Q1 (rBCMA+ marker-): 1.71%
  % of cells in Q3 (rBCMA- marker+): 19.5%
  % of cells in Q4 (rBCMA- marker-): 42.5%
[6]
  % of cells in Q1 (rBCMA+ marker-): 2.88%
  % of cells in Q3 (rBCMA- marker+): 24.3%
  % of cells in Q4 (rBCMA- marker-): 41.1%

B3: BCMA-1 scFv (scFv)
scFv: QVQLVQSGGGLVQPGRSLRLSCTASGFTFGDYAMSWFRQAPGKGLEWVGFIRSKAYGGTTEYAASVKGRFTISRDDSKSIAYLQMNSLKTEDTAVYYCAAWSAPTDYWGQGTLVTVSSGGGGSGGGGSGGGGSDIVMTQSPDSLSVSPGERATISCKSSQSVLSTSNNKNYLAWYQQKPGQPPRLLLYWASTREAGVPDRFSGSGSGTDFTLTISSLQAEDVAVYYCQQYFSSPYTFGHGTKLEIK
[1]
  binding result: binds
[2]
  binding result: binds

B4: BCMA-5 scFv (scFv)
scFv: QVQLVQSGGGLVQPGRSLRLSCTASGFTFGDYAMSWFRQAPGKGLEWVGFIRSKAYGGTTEYAASVKGRFTISRDDSKSIAYLQMNSLKTEDTAVYYCAAWSAPTDYWGQGTLVTVSSGGGGSGGGGSGGGGSDIVMTQSPDSLAVSLGERATINCKSSQSVLYSSNNKNYLAWYQQKPGQPPKLLIYWASTRESGVPDRFSGSGSGTDFTLTISSLQAEDVAVYYCQQYYSTPWTFGQGTKVDIK
[1]
  binding result: binds
[2]
  binding result: binds

B5: BCMA-26 scFv (scFv)
scFv: EVQLVESGGGLVKPGGSLRLSCAASGFTFSDYYMSWIRQAPGKGLEWVSYISSSGSTIYYADSVKGRFTISRDNAKNSLYLQMNSLRAEDTAVYYCAKVDGPPSFDIWGQGTMVTVSSGGGGSGGGGSGGGGSSYVLTQPPSVSVAPGQTARITCGANNIGSKSVHWYQQKPGQAPMLVVYDDDDRPSGIPERFSGSNSGNTATLTISGVEAGDEADYFCHLWDRSRDHYVFGTGTKLTVL
[7]
  binding result: binds
[2]
  binding result: binds

B6: BCMA-9 scFv (scFv)
scFv: EVQLVQSGGGLVKPGGSLRLSCAASGFTFSDYYMSWIRQAPGKGLEWVSYISSSGSTIYYADSVKGRFTISRDNAKNSLYLQMNSLRAEDTAVYYCARVDGDYVDDYWGQGTLVTVSSGGGGSGGGGSGGGGSSYELTQPPSVSVAPGQTARVTCGANNIGSKSVHWYQQKPGQAPMLVVYDDDDRPSGIPERFSGSNSGNTATLTISGVEAGDEADYFCHVWDRSRDHYVFGTGTKLTVL
[7]
  binding result: binds
[2]
  binding result: binds

B7: BCMA-52-scFv-mFc (Fc fusion, not shown: a dimerising Fc or GST)
chain: SYELTQPPSASGTPGQRVTMSCSGTSSNIGSHSVNWYQQLPGTAPKLLIYTNNQRPSGVPDRFSGSKSGTSASLAISGLQSEDEADYYCAAWDGSLNGLVFGGGTKLTVLGSRGGGGSGGGGSGGGGSLEMAEVQLVQSGAEVKKPGESLKISCKGSGYSFTSYWIGWVRQMPGKGLEWMGIIYPGDSDTRYSPSFQGHVTISADKSISTAYLQWSSLKASDTAMYYCARYSGSFDNWGQGTLVTVSS
notes: also called BCMA-52 scFv fused with mouse Fc
[7]
  binding result: binds

B8: BCMA-25-LS CAR (other)
chain: EVQLVQSGGGLVQPGRSLRLSCTASGFTFGDYAMSWFRQAPGKGLEWVGFIRSKAYGGTTEYAASVKGRFTISRDDSKSIAYLQMNSLKTEDTAVYYCAAWSAPTDYWGQGTLVTVSSGGGGSGGGGSGGGGSDIQMTQSPAFLSASVGDRVTVTCRASQGISNYLAWYQQKPGNAPRLLIYSASTLQSGVPSRFRGTGYGTEFSLTIDSLQPEDFATYYCQQSYTSRQTFGPGTRLDIKESKYGPPCPPCPAPPVAGPSVFLFPPKPKDTLMISRTPEVTCVVVDVSQEDPEVQFNWYVDGVEVHNAKTKPREEQFQSTYRVVSVLTVLHQDWLNGKEYKCKVSNKGLPSSIEKTISKAKGQPREPQVYTLPPSQEEMTKNQVSLTCLVKGFYPSDIAVEWESNGQPENNYKTTPPVLDSDGSFFLYSRLTVDKSRWQEGNVFSCSVMHEALHNHYTQKSLSLSLGKMFWVLVVVGGVLACYSLLVTVAFIIFWVKRGRKKLLYIFKQPFMRPVQTTQEEDGCSCRFPEEEEGGCELRVKFSRSADAPAYQQGQNQLYNELNLGRREEYDVLDKRRGRDPEMGGKPRRKNPQEGLYNELQKDKMAEAYSEIGMKGERRRGKGHDGLYQGLSTATKDTYDALHMQALPPR
notes: Chimeric antigen receptor; signal peptide left out; also called BCMA-25-LS-O/SSE CAR; BCMA-25-L CAR
[3]
  % of cells in Q1 (rBCMA+ marker-): 2.36%
  % of cells in Q3 (rBCMA- marker+): 10.4%
  % of cells in Q4 (rBCMA- marker-): 22.3%
[4]
  % of cells in Q1 (rBCMA+ marker-): 1.37%
  % of cells in Q3 (rBCMA- marker+): 17.5%
  % of cells in Q4 (rBCMA- marker-): 19.4%
[5]
  % of cells in Q1 (rBCMA+ marker-): 0.31%
  % of cells in Q3 (rBCMA- marker+): 30.5%
  % of cells in Q4 (rBCMA- marker-): 51.3%
[6]
  % of cells in Q1 (rBCMA+ marker-): 0.37%
  % of cells in Q3 (rBCMA- marker+): 29.4%
  % of cells in Q4 (rBCMA- marker-): 52.5%

B9: BCMA-23 scFv (scFv)
scFv: EVQLVESGGGLVKPGGSLRLSCAASGFTFSDYYMSWIRQAPGKGLEWVSYISSSGSTIYYADSVKGRFTISRDNAKNSLYLQMNSLRAEDTAVYYCAKVDGDYTEDYWGQGTLVTVSSGGGGSGGGGSGGGGSQSALTQPASVSGSPGQSITISCTGSSSDVGKYNLVSWYQQPPGKAPKLIIYDVNKRPSGVSNRFSGSKSGNTATLTISGLQGDDEADYYCSSYGGSRSYVFGTGTKVTVL
[1]
  binding result: binds
